From the supplement of paper PMC9170038 come the findings set out here.

For the series, the system named is MS2 coat protein. Put plainly: apparent KD of MS2 coat protein; designed switch direction (-1 OFF switch, 1 ON switch): -1; higher = weaker reporter binding. The procedure, abridged:
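For each design, the apparent KD is the median over clusters of curves fitted to normalised cluster fluorescence. Clusters held RNA switches with common flanks, transcribed on Illumina chips by stalled E. coli RNA polymerase. These were titrated with SNAP-549-labelled MS2 coat protein, doubling from 0.7 or 1.5 nM to 3 µM, without input, with 200 uM small-molecule ligand, or with an oligonucleotide input.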

Setting [1] is: input ligand: microRNA oligo, concentration not stated.
Setting [2] is: Eterna round: R95, input ligand: FMN 200 uM.
Setting [3] is: Eterna round: R95, input ligand: microRNA oligo, concentration not stated.
[4] abbreviates: Eterna round: R95, input ligand: none.

Turning to “AUCAGCUCGUGAGGAUAUACAUGAGGAUCACCCAUGUGGUCAUUAGCAGCUUCGGCUGCAUUAAUGUAGAAGGCACGAGCUGAU [ENG2/8-A2] (Eterna round: R96, puzzle: Exclusion NG 2)”, the “apparent KD of MS2 coat protein” value (input ligand: FMN 200 uM) is 360 nM, the “apparent KD of MS2 coat protein” value under setting [1] is 732 nM and the “apparent KD of MS2 coat protein” value (input ligand: none) worked out at 829 nM.

For “AUCAUGUAAGGAUAUCUUACAUGGAUCGAAAGAUCAAGUUAAGAGAAGGUACAUGAGGAUCACCCAUGUAUAAC [Ex4-3: 34] (puzzle: Exclusion 4)”, the “apparent KD of MS2 coat protein” value under setting [2] is 21 nM, the “apparent KD of MS2 coat protein” value under setting [3] is 22.3 nM and the “apparent KD of MS2 coat protein” value under setting [4] was 20.8 nM.

Turning to “AUCAUGUAAGGAUAUCUUACAUGUGACUUCGGUCACAGUUAAGAGAAGGUACAUGAGGAUCACCCAUGUAUAAC [Ex4-3: 37] (puzzle: Exclusion 4)”, the “apparent KD of MS2 coat protein” value under setting [3] turned out to be 25.3 nM.

Consider “AUCAUGUAAGGAUAUCUUAUAUGGAUCGAAAGAUCAAGUUAAGAGAAGGUACAUGAGGAUCACCCAUGUAUAAC [Ex4-3: 33] (puzzle: Exclusion 4)”, for which the “apparent KD of MS2 coat protein” value under setting [3] amounted to 19.4 nM.

For the sequence “AUCAUGUAAGGAUAUCUUAUAUGGAUCUUCGGAUCAAGUUAAGAGAAGGUACAUGAGGAUCACCCAUGUAUAAC [Ex4-3: 32] (puzzle: Exclusion 4)”, the “apparent KD of MS2 coat protein” value under setting [3] worked out at 24.3 nM.

“AUCCAACAUGAGGAUCACCCAUGUCAGGAUAUCUAGCGGUGCGGCAACCCGGGCGCGCGGAGAAGGGACAACGG [EX1 B.23] (Eterna round: R97, puzzle: Exclusion 1)”: the “apparent KD of MS2 coat protein” value was 56.2 nM (input ligand: FMN 200 uM) and 27.2 nM (input ligand: none).

With “AUCCAGCUAGGAUAUGCAGAGGCGAUCGCGGGCAUGUCCCAACAUGAGGAUCACCCAUGUAGAAGGAGCCAAGG [Eternabot (Original) Solution 48] (Eterna round: R97, puzzle: Exclusion 2)”, the “apparent KD of MS2 coat protein” value is 76.1 nM (input ligand: FMN 200 uM) and 33.2 nM (input ligand: none).

With “AUCCCGCGAGGAUAUACAUGAGGAUCACCCAUGUAGGUUCUGGAUGGGCGAAAUUUGUGUAGAAGGCGCACCAA [Tibeaqu] (Eterna round: R96, puzzle: Exclusion 3)”, the “apparent KD of MS2 coat protein” value is, setting by setting: (input ligand: FMN 200 uM) 38.4 nM; under setting [1], 42.6 nM; (input ligand: none) 52 nM.

Turning to “AUCCGACAUGAGGAUCACCCAUGUCAGGAUAUGGACUGACAUCGAAAGGAUGGAAGAACCAGAAGGGACUGGGC [Betiqu] (Eterna round: R96, puzzle: Exclusion 1)”, the “apparent KD of MS2 coat protein” value runs as follows: (input ligand: FMN 200 uM) 71.7 nM; under setting [1], 17.1 nM; (input ligand: none) 20.1 nM.

Consider “AUCGUGCAGCUUUGCUGUACGAGUACAUGAGGAUCACCCAUGUAGGAUAUGGUACGCUUUGCGUGCUAGAAGGAUAUGAGAUUA [EX ENG3 1.48] (Eterna round: R96, puzzle: Exclusion NG 3)”, for which the “apparent KD of MS2 coat protein” value is, setting by setting: (input ligand: FMN 200 uM) 40.2 nM; under setting [1], 28.5 nM; (input ligand: none) 31 nM.

For the sequence “AUCUUGUCAGGAUAUCUGACAAGUGACUUCGGUCACAGUUCAGAGAAGGUACAUGAGGAUCACCCAUGUAGAAC [Ex4-3: 39] (puzzle: Exclusion 4)”, the “apparent KD of MS2 coat protein” value under setting [3] was found to be 17.9 nM.

“AUGAACAAUGUAGGAUAUGCGUGGCGAAGCUAUGCAGAAGGACAUGAGGAUCACCCAUGUUCAAGCGUCUGCGUACAGAUGCUA [JL eng1 1.35 mod 7] (Eterna round: R96, puzzle: Exclusion NG 1)”: the “apparent KD of MS2 coat protein” value reads like this: (input ligand: FMN 200 uM) 26.9 nM; under setting [1], 10.3 nM; (input ligand: none) 13.8 nM.

For “AUGAGGGUAAGAAGGUGAAGAUAGAGCGUACCUUAUGGAACAUGAGGAUCACCCAUGUAGCUUUUUGCUCGUCUUAU [JR_SV3TOV2_Sub032] (puzzle: Sensor v3, turn-off variant 2)”, the “apparent KD of MS2 coat protein” value stood at 36.1 nM under setting [2], 84 nM under setting [3] and 35.6 nM under setting [4].

For the sequence “AUGCCACAUGAGGAUCACCCAUGUGAGGAUAUGCUAGUAUUCCUAACGGCCGAUGCAGGCAGAAGGCGCUCGGG [Eternabot (L1) Solution 73] (Eterna round: R97, puzzle: Exclusion 1)”, the “apparent KD of MS2 coat protein” value was found to be 19.5 nM (input ligand: FMN 200 uM) and 24.5 nM (input ligand: none).

On to “AUGCCCUGAGGAUAUCUCAUCCCGCACAUGAGGAUCACCCAUGUUCUUCUCUGGGUUUCGAGAGAAGGCAGGCCUA [Armus3] (Eterna round: R97, puzzle: Exclusion 5)”, for which the “apparent KD of MS2 coat protein” value runs as follows: (input ligand: FMN 200 uM) 53.6 nM; (input ligand: none) 118 nM.

As to “AUGCUCCGUGUAGGAUAUCGCCGUAUUACUCGGCGAGAAGGACAUGAGGAUCACCCAUGUAUGUUAUUAUCACGUGUGGCGCGC [Design 46] (Eterna round: R96, puzzle: Exclusion NG 1)”, the “apparent KD of MS2 coat protein” value is 35.2 nM (input ligand: FMN 200 uM), 15.4 nM under setting [1] and 18.6 nM (input ligand: none).

Regarding “AUGGACGCAGGAUAUACAUGAGGAUCACCCAUGUGAGGUUGGUAAGUAGGAAGUGAAGGUAGAAGGGCGAGAGA [JR_Exclu3_Sub097] (puzzle: Exclusion 3)”, the “apparent KD of MS2 coat protein” value under setting [2] was 107 nM, the “apparent KD of MS2 coat protein” value under setting [3] was determined as 74.8 nM and the “apparent KD of MS2 coat protein” value under setting [4] was 84.3 nM.

As for “AUGGACGCAGGAUAUACAUGAGGAUCACCCAUGUUAGGGUUGUGAGUAGGAAGGGAAGGUAGAAGGGCGAGAGU [JR_Exclu3_Sub099] (puzzle: Exclusion 3)”, the “apparent KD of MS2 coat protein” value under setting [3] came out at 86.9 nM.

Turning to “AUGGUACAUGAGGAUCACCCAUGUUAGGAUAUCGCGUGUUCUAAAACUAAGAGAUACACGAGAAGGGACGACAU (puzzle: Exclusion 1)”, the “apparent KD of MS2 coat protein” value under setting [3] is 81.2 nM.

“AUGUGCACGCUGCGAUCCUACAUGAGGAUCACCCAUGUGGUCUGGUGGCGUGGGUCACCGGACUUGGCUCGUCUUGG [salish99_S_TOV1_R5_075] (Eterna round: R97, puzzle: Sensor, turn-off variant 1)”: the “apparent KD of MS2 coat protein” value reads like this: (input ligand: FMN 200 uM) 139 nM; (input ligand: none) 170 nM.

Regarding “AUGUGCACGCUGCGGUCCUACAUGAGGAUCACCCAUGUGGUCUGGUGGCGUGGGUCGCCGGACUUGGCUCGUCUUGU [salish99_S_TOV1_R5_030] (Eterna round: R97, puzzle: Sensor, turn-off variant 1)”, the “apparent KD of MS2 coat protein” value runs as follows: (input ligand: FMN 200 uM) 18.6 nM; (input ligand: none) 18.7 nM.

Regarding “AUGUUACUCUGAGGAUAUUGUUUAUUCUUCUCACAUGAGGAUCACCCAUGUUUCCGUGUUUACCGCAAGAAGGCAGUUUUGUUU [JR_ExcNG2_Sub028] (Eterna round: R96, puzzle: Exclusion NG 2)”, the “apparent KD of MS2 coat protein” value (input ligand: FMN 200 uM) came to 41.1 nM, the “apparent KD of MS2 coat protein” value under setting [1] is 29 nM and the “apparent KD of MS2 coat protein” value (input ligand: none) came to 31.8 nM.

For “AUUAAAACGGCAGGAUAUCAGCGACAUGAGGAUCACCCAUGUUAGGGCUGACCCUGGAGUCUGGCUGAGAAGGGCCGACUCUCA [Riququ] (Eterna round: R96, puzzle: Exclusion NG 2)”, the “apparent KD of MS2 coat protein” value came out at 192 nM (input ligand: FMN 200 uM), 33.2 nM under setting [1] and 59.9 nM (input ligand: none).

Consider “AUUAAUGUCAAAGGAUAUCAGCACGUGUAGUGCUGAGAAGGUUGAACAUGAGGAUCACCCAUGUAGAUCAUUAAUAAUUUAAUU [ENG1/10-B3] (Eterna round: R96, puzzle: Exclusion NG 1)”, for which the “apparent KD of MS2 coat protein” value (input ligand: FMN 200 uM) came out at 25.5 nM, the “apparent KD of MS2 coat protein” value under setting [1] was determined as 14.5 nM and the “apparent KD of MS2 coat protein” value (input ligand: none) stood at 20.6 nM.
